Reference: patent US20250263469A1 (HOSPITAL FOR SICK CHILDREN, published 2025)
Changes are numbered by the printed parent chain.

B1: mAb 52 (antibody, V domains shown)
VH: QVQLVQSGAEVKKPGSSVKVSCKASGYTFTSYGISWVRQAPGQGLEWMGGIIPMFGTTNYAQKFQGRVTITADKSTSTAYMELSSLRSEDTAVYYCARDRGDTIDYWGQGTLVTVSS
VL: DIQMTQSPSSLSASVGDRVTITCRASQGISNNLNWYQQKPGKAPKLLIYAASSLESGVPSRFSGSGSGTDFTLTISSLQPEDFATYYCQQGNGFPLTFGPGTKVDIKR
B2: mAb 46 (antibody, V domains shown)
VH: EVQLLESGGGLVQPGRSLRLSCAASGFTFSSYAMSWVRQAPGKGLEWVSTIYSGGSTYYADSVKGRFTISRDNSKNTLYLQMNSLRAEDTAVYYCARGDSRDAFDIWGQGTMVTVSS
VL: DIQMTQSPSSLSASVGDRVTITCRASQSISSWLAWYQQKPGKAPKLLIYDASNLETGVPSRFSGSGSGTDFTLTISSLQPEDFATYYCQQSYSTPFTFGPGTKVDIKR
B3: mAb 324 (antibody, V domains shown)
VH: QVQLVQSGAEVKKPGASVKVSCKASGGTFNNYGISWVRQAPGQGLEWMGWMNPNSGNTGYAQKFQGRVTMTRDTSTSTVYMELSSLRSEDTAVYYCARVGDYGDYIVSPFDLWGRGTLVTVSS
VL: B2 VL with S30T, S31T, W32Y, A34N, F96P, P100Q, D105E
B4: mAb 236 (antibody, V domains shown)
VH: QVQLVQSGAEVKKPGASVKVSCKASGGTFTSYGINWVRQAPGQGLEWMGWMNPNSGNTGYAQKFQGRVTMTRDTSTSTVYMELSSLRSEDTAVYYCASRGIQLLPRGMDVWGQGTTVTVSS
VL: not shown
B5: mAb 82 (antibody, V domains shown)
VH: QVQLVQSGAEVKKPGASVKVSCKASGGSFSTSAFYWVRQAPGQGLEWMGWINPYTGGTNYAQKFQGRVTMTRDTSTSTVYMELSSLRSEDTAVYYCARSRALYGSGSYFDYWGQGTLVTVSS
VL: B2 VL with S28V, S31N, W32Y, Y92F, T94P, F96P, P100Q, K103R, V104L, D105E

Each binder was assayed against Spike of authentic SARS-CoV-2/SB2-P4-PB virus (SARS-CoV-2, UniProt P0DTC2 14-1273) (assay: cell-based or functional assay).

Question: B1 was tested. Which “IC50 SARS-CoV2/SB2-P4-PB (authentic virus), IgG” value (shortened to “IC50 SARS-CoV2/SB2-P4-PB”) did it give?
Answer: The value was 6.2 µg/mL.

Question: Which “IC50 SARS-CoV2/SB2-P4-PB” value does the source give for B2 here?
Answer: The value was 19 µg/mL.

Question: How did the “IC50 SARS-CoV2/SB2-P4-PB” value turn out when B3 was run?
Answer: Its value is 21 µg/mL.

Question: For B4, which “IC50 SARS-CoV2/SB2-P4-PB” value is on record?
Answer: The value was 5.5 µg/mL.

These binders were tested against SARS-CoV-2 Spike N439K on pseudotyped virus (SARS-CoV-2, UniProt P0DTC2 14-1273) (assay: cell-based or functional assay).

Question: With B1 as the binder, how does the “Potency change vs WT PsV” value read?
Answer: The value was 1.8 fold.

Question: With B2 as the binder, how does the “Potency change vs WT PsV” value read?
Answer: Its value is 4.1 fold.

Question: B3 was tested. Which “Potency change vs WT PsV” value did it give?
Answer: Its value is -1 fold.

Question: How did the “Potency change vs WT PsV” value turn out when B5 was run?
Answer: The value was 1.1 fold.

Question: Which “Potency change vs WT PsV” value does the source give for B4 here?
Answer: The value was 2.1 fold.

What follows are binders tested against SARS-CoV-2 Spike D614G on pseudotyped virus (SARS-CoV-2, UniProt P0DTC2 14-1273) (assay: cell-based or functional assay).

Question: Which “Potency change vs WT PsV” value does the source give for B1 here?
Answer: The value was 0.4 fold.

Question: B2 was tested. Which “Potency change vs WT PsV” value did it give?
Answer: The value was 1.9 fold.

Question: For B3, which “Potency change vs WT PsV” value is on record?
Answer: The value was 2.6 fold.

Question: B4 was tested. Which “Potency change vs WT PsV” value did it give?
Answer: The value was 0.7 fold.

These binders were tested against SARS-CoV-2 Spike L452R on pseudotyped virus (SARS-CoV-2, UniProt P0DTC2 14-1273) (assay: cell-based or functional assay).

Question: B1 was tested. Which “IC50 (PsV neutralisation)” value did it give?
Answer: Its value is > 100 µg/mL.

Question: Which “IC50 (PsV neutralisation)” value does the source give for B2 here?
Answer: The value was > 100 µg/mL.

Question: B3 was tested. Which “Potency change vs WT PsV” value did it give?
Answer: The value was 0.8 fold.

Question: B5 was tested. Which “Potency change vs WT PsV” value did it give?
Answer: Its value is -8.1 fold.

Question: For B4, which “Potency change vs WT PsV” value is on record?
Answer: Its value is -0.6 fold.

These binders were tested against SARS-CoV-2 Spike A475V on pseudotyped virus (SARS-CoV-2, UniProt P0DTC2 14-1273) (assay: cell-based or functional assay).

Question: With B1 as the binder, how does the “Potency change vs WT PsV” value read?
Answer: The value was 1.1 fold.

Question: With B2 as the binder, how does the “Potency change vs WT PsV” value read?
Answer: The value was 1.9 fold.

Question: How did the “Potency change vs WT PsV” value turn out when B3 was run?
Answer: Its value is -0.6 fold.

Question: B5 was tested. Which “Potency change vs WT PsV” value did it give?
Answer: The value was -5.7 fold.

Question: How did the “Potency change vs WT PsV” value turn out when B4 was run?
Answer: The value was 1.4 fold.

The binders below were run against SARS-CoV-2 Spike V483A on pseudotyped virus (SARS-CoV-2, UniProt P0DTC2 14-1273) (assay: cell-based or functional assay).

Question: Which “Potency change vs WT PsV” value does the source give for B2 here?
Answer: The value was 2 fold.

Question: B3 was tested. Which “Potency change vs WT PsV” value did it give?
Answer: Its value is -0.4 fold.

Question: Which “Potency change vs WT PsV” value does the source give for B5 here?
Answer: Its value is 0.2 fold.

Question: B4 was tested. Which “Potency change vs WT PsV” value did it give?
Answer: The value was 1.9 fold.

What follows are binders tested against T1, SARS-CoV-2 receptor binding domain (RBD), wild type (BEI NR52309) (SARS-CoV-2, UniProt P0DTC2 319-541) (assay: BLI competition on His-tagged RBD, signal of the 2nd Ab after 1st Ab 236).

Question: For B1, which RBD binding is on record?
Answer: The RBD binding was 1.5.

Question: Which RBD binding does the source give for B2 here?
Answer: Its RBD binding is 1.7.

Question: For B3, which RBD binding is on record?
Answer: Its RBD binding is 0.3.

Question: Which RBD binding does the source give for B4 here?
Answer: Its RBD binding is 0.3.

Each binder was assayed against T1, SARS-CoV-2 receptor binding domain … (assay: BLI competition on His-tagged RBD, signal of the 2nd Ab after 1st Ab 298).

Question: Which RBD binding does the source give for B1 here?
Answer: The RBD binding was 1.4.

Question: B2 was tested. Which RBD binding did it give?
Answer: The RBD binding was 1.7.

Question: How did the RBD binding turn out when B5 was run?
Answer: Its RBD binding is 0.5.

What follows are binders tested against T1, SARS-CoV-2 receptor binding domain … (assay: BLI competition on His-tagged RBD, signal of the 2nd Ab after 1st Ab 324).

Question: Which RBD binding does the source give for B1 here?
Answer: The RBD binding was 1.5.

Question: Which RBD binding does the source give for B2 here?
Answer: The RBD binding was 1.7.

Question: How did the RBD binding turn out when B3 was run?
Answer: Its RBD binding is 0.4.

Question: B5 was tested. Which RBD binding did it give?
Answer: The RBD binding was 0.8.

Question: With B4 as the binder, how does the RBD binding read?
Answer: Its RBD binding is 0.4.
